From publication PMC6978347 (2020)

Molecular target: T1, MEKK3^43–127 (MEKK3–PB1) (UniProt Q99759 43-127)
T1 chain: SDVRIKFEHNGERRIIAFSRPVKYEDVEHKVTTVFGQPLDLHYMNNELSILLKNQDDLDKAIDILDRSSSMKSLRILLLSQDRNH
Assay: ITC

B1: NBR1^1–85 (human NBR1–PB1) (domain or fragment)
chain: MEPQVTLNVTFKNEIQSFLVSDPENTTWADIEAMVKVSFDLNTIQIKYLDEENEEVSINSQGEYEEALKMAVKQGNQLQMQVHEG
Kd: 13.3 nM
